Results reported in patent US20210032299A1 (Eli Lilly, published 2021).
Where a chain is given by its changes, count along the chain named. Starred links: 1 amine or outer side, 2 acyl side, 3 side chain; linkers in the order of their positions; H or OH if unused. Non-standard residues stand in square brackets, D forms with d. Groups on a side chain read outwards from the residue. No end group written: not given here. *: point of attachment. C20 diacid = O=C(O)CCCCCCCCCCCCCCCCCCC(=O)*; γGlu = O=C(O)[C@H](CCC(=O)[*:2])N[*:1]; 4Pal = N[C@@H](Cc1ccncc1)C(=O)O; αMeL = CC(C)C[C@](C)(N)C(=O)O; AEEA = NCCOCCOCC(=O)O; Aib = CC(C)(N)C(=O)O

Columns and labels:
Assay in all cases: cell-based or functional assay
[1] = biological target: T1, human glucose-dependent insulinotropic peptide receptor (human, UniProt P48546 22-466)
T1 sequence (looked up): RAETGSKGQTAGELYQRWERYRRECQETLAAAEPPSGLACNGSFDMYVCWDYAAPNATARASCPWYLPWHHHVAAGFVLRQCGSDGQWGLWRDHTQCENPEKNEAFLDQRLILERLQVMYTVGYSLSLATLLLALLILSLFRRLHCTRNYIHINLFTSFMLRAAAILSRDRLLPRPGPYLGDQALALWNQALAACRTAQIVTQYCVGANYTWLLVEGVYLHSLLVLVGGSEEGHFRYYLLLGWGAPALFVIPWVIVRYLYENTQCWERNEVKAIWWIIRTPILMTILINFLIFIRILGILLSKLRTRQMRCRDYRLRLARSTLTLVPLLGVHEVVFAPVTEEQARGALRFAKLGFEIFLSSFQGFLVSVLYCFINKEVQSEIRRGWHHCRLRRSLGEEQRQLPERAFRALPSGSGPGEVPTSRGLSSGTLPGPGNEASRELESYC

human GLP-1 receptor = human GLP-1 receptor (human, UniProt P43220 24-463)
human glucagon receptor = human glucagon receptor (human, UniProt P47871 26-477)
Chain of human glucagon receptor (P47871 26-477): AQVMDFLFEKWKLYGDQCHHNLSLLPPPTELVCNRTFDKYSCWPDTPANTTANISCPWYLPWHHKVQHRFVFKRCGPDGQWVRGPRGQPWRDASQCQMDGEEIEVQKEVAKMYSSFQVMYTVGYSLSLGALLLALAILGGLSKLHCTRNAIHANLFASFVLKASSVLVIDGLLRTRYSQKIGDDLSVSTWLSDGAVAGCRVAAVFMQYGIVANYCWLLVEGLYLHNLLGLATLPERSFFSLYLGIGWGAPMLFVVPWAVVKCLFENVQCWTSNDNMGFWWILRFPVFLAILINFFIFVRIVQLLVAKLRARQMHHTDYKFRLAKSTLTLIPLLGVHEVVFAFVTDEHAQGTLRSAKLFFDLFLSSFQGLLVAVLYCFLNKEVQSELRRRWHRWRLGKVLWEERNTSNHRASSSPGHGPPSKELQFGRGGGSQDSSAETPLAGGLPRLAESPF

B1: Example 70 (peptide)
peptide: Y[Aib]EGTFISDYSI[αMeL]LDKK([AEEA-AEEA-γGlu-C20 diacid])HQ[Aib]DFVE[4Pal]LLATGPSSGAPPPS-NH2
modifications: N-terminus assumed
SMILES: CC[C@H](C)[C@H](NC(=O)[C@H](Cc1ccccc1)NC(=O)[C@@H](NC(=O)CNC(=O)[C@H](CCC(=O)O)NC(=O)C(C)(C)NC(=O)[C@@H](N)Cc1ccc(O)cc1)[C@@H](C)O)C(=O)N[C@@H](CO)C(=O)N[C@@H](CC(=O)O)C(=O)N[C@@H](Cc1ccc(O)cc1)C(=O)N[C@@H](CO)C(=O)N[C@H](C(=O)N[C@@](C)(CC(C)C)C(=O)N[C@@H](CC(C)C)C(=O)N[C@@H](CC(=O)O)C(=O)N[C@@H](CCCCN)C(=O)N[C@@H](CCCCNC(=O)COCCOCCNC(=O)COCCOCCNC(=O)CC[C@H](NC(=O)CCCCCCCCCCCCCCCCCCC(=O)O)C(=O)O)C(=O)N[C@@H](Cc1c[nH]cn1)C(=O)N[C@@H](CCC(N)=O)C(=O)NC(C)(C)C(=O)N[C@@H](CC(=O)O)C(=O)N[C@@H](Cc1ccccc1)C(=O)N[C@H](C(=O)N[C@@H](CCC(=O)O)C(=O)N[C@@H](Cc1ccncc1)C(=O)N[C@@H](CC(C)C)C(=O)N[C@@H](CC(C)C)C(=O)N[C@@H](C)C(=O)N[C@H](C(=O)NCC(=O)N1CCC[C@H]1C(=O)N[C@@H](CO)C(=O)N[C@@H](CO)C(=O)NCC(=O)N[C@@H](C)C(=O)N1CCC[C@H]1C(=O)N1CCC[C@H]1C(=O)N1CCC[C@H]1C(=O)N[C@@H](CO)C(N)=O)[C@@H](C)O)C(C)C)[C@@H](C)CC
hGIPR cAMP Rel EC50 [1]: 0.0254 nM | hGLP1R cAMP Rel EC50 (human GLP-1 receptor): > 5000 nM | hGcgR cAMP Rel EC50 (human glucagon receptor): 3560 nM

B2: Example 71 (peptide)
peptide: Y[Aib]EGTFISDYSI[αMeL]LDKK([AEEA-AEEA-γGlu-C20 diacid])HQ[Aib]DFVEWLLETGPSSGAPPPS-NH2
modifications: N-terminus assumed
SMILES: CC[C@H](C)[C@H](NC(=O)[C@H](Cc1ccccc1)NC(=O)[C@@H](NC(=O)CNC(=O)[C@H](CCC(=O)O)NC(=O)C(C)(C)NC(=O)[C@@H](N)Cc1ccc(O)cc1)[C@@H](C)O)C(=O)N[C@@H](CO)C(=O)N[C@@H](CC(=O)O)C(=O)N[C@@H](Cc1ccc(O)cc1)C(=O)N[C@@H](CO)C(=O)N[C@H](C(=O)N[C@@](C)(CC(C)C)C(=O)N[C@@H](CC(C)C)C(=O)N[C@@H](CC(=O)O)C(=O)N[C@@H](CCCCN)C(=O)N[C@@H](CCCCNC(=O)COCCOCCNC(=O)COCCOCCNC(=O)CC[C@H](NC(=O)CCCCCCCCCCCCCCCCCCC(=O)O)C(=O)O)C(=O)N[C@@H](Cc1c[nH]cn1)C(=O)N[C@@H](CCC(N)=O)C(=O)NC(C)(C)C(=O)N[C@@H](CC(=O)O)C(=O)N[C@@H](Cc1ccccc1)C(=O)N[C@H](C(=O)N[C@@H](CCC(=O)O)C(=O)N[C@@H](Cc1c[nH]c2ccccc12)C(=O)N[C@@H](CC(C)C)C(=O)N[C@@H](CC(C)C)C(=O)N[C@@H](CCC(=O)O)C(=O)N[C@H](C(=O)NCC(=O)N1CCC[C@H]1C(=O)N[C@@H](CO)C(=O)N[C@@H](CO)C(=O)NCC(=O)N[C@@H](C)C(=O)N1CCC[C@H]1C(=O)N1CCC[C@H]1C(=O)N1CCC[C@H]1C(=O)N[C@@H](CO)C(N)=O)[C@@H](C)O)C(C)C)[C@@H](C)CC
hGIPR cAMP Rel EC50 [1]: 0.0721 nM | hGLP1R cAMP Rel EC50 (human GLP-1 receptor): > 5000 nM | hGcgR cAMP Rel EC50 (human glucagon receptor): 581 nM

B3: Example 72 (peptide)
peptide: Y[Aib]EGTLISDYSI[αMeL]LDKK([AEEA-AEEA-γGlu-C20 diacid])HQ[Aib]EFVEYLLETGPSSGAPPPS-NH2
modifications: N-terminus assumed
SMILES: CC[C@H](C)[C@H](NC(=O)[C@H](CC(C)C)NC(=O)[C@@H](NC(=O)CNC(=O)[C@H](CCC(=O)O)NC(=O)C(C)(C)NC(=O)[C@@H](N)Cc1ccc(O)cc1)[C@@H](C)O)C(=O)N[C@@H](CO)C(=O)N[C@@H](CC(=O)O)C(=O)N[C@@H](Cc1ccc(O)cc1)C(=O)N[C@@H](CO)C(=O)N[C@H](C(=O)N[C@@](C)(CC(C)C)C(=O)N[C@@H](CC(C)C)C(=O)N[C@@H](CC(=O)O)C(=O)N[C@@H](CCCCN)C(=O)N[C@@H](CCCCNC(=O)COCCOCCNC(=O)COCCOCCNC(=O)CC[C@H](NC(=O)CCCCCCCCCCCCCCCCCCC(=O)O)C(=O)O)C(=O)N[C@@H](Cc1c[nH]cn1)C(=O)N[C@@H](CCC(N)=O)C(=O)NC(C)(C)C(=O)N[C@@H](CCC(=O)O)C(=O)N[C@@H](Cc1ccccc1)C(=O)N[C@H](C(=O)N[C@@H](CCC(=O)O)C(=O)N[C@@H](Cc1ccc(O)cc1)C(=O)N[C@@H](CC(C)C)C(=O)N[C@@H](CC(C)C)C(=O)N[C@@H](CCC(=O)O)C(=O)N[C@H](C(=O)NCC(=O)N1CCC[C@H]1C(=O)N[C@@H](CO)C(=O)N[C@@H](CO)C(=O)NCC(=O)N[C@@H](C)C(=O)N1CCC[C@H]1C(=O)N1CCC[C@H]1C(=O)N1CCC[C@H]1C(=O)N[C@@H](CO)C(N)=O)[C@@H](C)O)C(C)C)[C@@H](C)CC
hGIPR cAMP Rel EC50 [1]: 0.0182 nM | hGLP1R cAMP Rel EC50 (human GLP-1 receptor): > 5000 nM | hGcgR cAMP Rel EC50 (human glucagon receptor): > 5000 nM

B4: Example 73 (peptide)
peptide: Y[Aib]EGTLISDYSI[αMeL]LDKK([AEEA-AEEA-γGlu-C20 diacid])HQ[Aib]EFVEYLLEGGPSSGAPPPS-NH2
modifications: N-terminus assumed
SMILES: CC[C@H](C)[C@H](NC(=O)[C@H](CC(C)C)NC(=O)[C@@H](NC(=O)CNC(=O)[C@H](CCC(=O)O)NC(=O)C(C)(C)NC(=O)[C@@H](N)Cc1ccc(O)cc1)[C@@H](C)O)C(=O)N[C@@H](CO)C(=O)N[C@@H](CC(=O)O)C(=O)N[C@@H](Cc1ccc(O)cc1)C(=O)N[C@@H](CO)C(=O)N[C@H](C(=O)N[C@@](C)(CC(C)C)C(=O)N[C@@H](CC(C)C)C(=O)N[C@@H](CC(=O)O)C(=O)N[C@@H](CCCCN)C(=O)N[C@@H](CCCCNC(=O)COCCOCCNC(=O)COCCOCCNC(=O)CC[C@H](NC(=O)CCCCCCCCCCCCCCCCCCC(=O)O)C(=O)O)C(=O)N[C@@H](Cc1c[nH]cn1)C(=O)N[C@@H](CCC(N)=O)C(=O)NC(C)(C)C(=O)N[C@@H](CCC(=O)O)C(=O)N[C@@H](Cc1ccccc1)C(=O)N[C@H](C(=O)N[C@@H](CCC(=O)O)C(=O)N[C@@H](Cc1ccc(O)cc1)C(=O)N[C@@H](CC(C)C)C(=O)N[C@@H](CC(C)C)C(=O)N[C@@H](CCC(=O)O)C(=O)NCC(=O)NCC(=O)N1CCC[C@H]1C(=O)N[C@@H](CO)C(=O)N[C@@H](CO)C(=O)NCC(=O)N[C@@H](C)C(=O)N1CCC[C@H]1C(=O)N1CCC[C@H]1C(=O)N1CCC[C@H]1C(=O)N[C@@H](CO)C(N)=O)C(C)C)[C@@H](C)CC
hGIPR cAMP Rel EC50 [1]: 0.0151 nM | hGLP1R cAMP Rel EC50 (human GLP-1 receptor): > 5000 nM | hGcgR cAMP Rel EC50 (human glucagon receptor): > 5000 nM

B5: Example 74 (peptide)
peptide: YXEGTXISDYSIXLDKKHQXDFVEXLLEGGPSSGAPPPS
modifications: Aib2; Iva6; αMeL13; K17((2-[2-(2-Amino-ethoxy)-ethoxy]-acetyl)2-(γ-Glu)-CO-(CH2)18-CO2H); Aib20; 4-Pal25; C-terminal amide
hGIPR cAMP Rel EC50 [1]: 0.0167 nM | hGLP1R cAMP Rel EC50 (human GLP-1 receptor): > 5000 nM | hGcgR cAMP Rel EC50 (human glucagon receptor): 627 nM

B6: Example 75 (peptide)
peptide: B5 peptide with G29T
modifications: Aib2; Iva6; αMeL13; K17((2-[2-(2-Amino-ethoxy)-ethoxy]-acetyl)2-(γ-Glu)-CO-(CH2)18-CO2H); Aib20; 4-Pal25; C-terminal amide
hGIPR cAMP Rel EC50 [1]: 0.0182 nM | hGLP1R cAMP Rel EC50 (human GLP-1 receptor): > 5000 nM | hGcgR cAMP Rel EC50 (human glucagon receptor): 2170 nM

B7: Example 76 (peptide)
peptide: B5 peptide with K16X
modifications: Aib2; Iva6; αMeL13; Orn16; K17((2-[2-(2-Amino-ethoxy)-ethoxy]-acetyl)2-(γ-Glu)-CO-(CH2)18-CO2H); Aib20; 4-Pal25; C-terminal amide
hGIPR cAMP Rel EC50 [1]: 0.0154 nM | hGLP1R cAMP Rel EC50 (human GLP-1 receptor): > 5000 nM | hGcgR cAMP Rel EC50 (human glucagon receptor): 1200 nM

B8: Example 77 (peptide)
peptide: B5 peptide with K16X, G29T
modifications: Aib2; Iva6; αMeL13; Orn16; K17((2-[2-(2-Amino-ethoxy)-ethoxy]-acetyl)2-(γ-Glu)-CO-(CH2)18-CO2H); Aib20; 4-Pal25; C-terminal amide
hGIPR cAMP Rel EC50 [1]: 0.0265 nM | hGLP1R cAMP Rel EC50 (human GLP-1 receptor): > 5000 nM | hGcgR cAMP Rel EC50 (human glucagon receptor): 2660 nM

B9: Example 78 (peptide)
peptide: Y[Aib]EGTFISDYSI[αMeL]LDKK([AEEA-AEEA-γGlu-C20 diacid])HQ[Aib]DFVE[4Pal]LLAAGPSSGAPPPS-NH2
modifications: N-terminus assumed
SMILES: CC[C@H](C)[C@H](NC(=O)[C@H](Cc1ccccc1)NC(=O)[C@@H](NC(=O)CNC(=O)[C@H](CCC(=O)O)NC(=O)C(C)(C)NC(=O)[C@@H](N)Cc1ccc(O)cc1)[C@@H](C)O)C(=O)N[C@@H](CO)C(=O)N[C@@H](CC(=O)O)C(=O)N[C@@H](Cc1ccc(O)cc1)C(=O)N[C@@H](CO)C(=O)N[C@H](C(=O)N[C@@](C)(CC(C)C)C(=O)N[C@@H](CC(C)C)C(=O)N[C@@H](CC(=O)O)C(=O)N[C@@H](CCCCN)C(=O)N[C@@H](CCCCNC(=O)COCCOCCNC(=O)COCCOCCNC(=O)CC[C@H](NC(=O)CCCCCCCCCCCCCCCCCCC(=O)O)C(=O)O)C(=O)N[C@@H](Cc1c[nH]cn1)C(=O)N[C@@H](CCC(N)=O)C(=O)NC(C)(C)C(=O)N[C@@H](CC(=O)O)C(=O)N[C@@H](Cc1ccccc1)C(=O)N[C@H](C(=O)N[C@@H](CCC(=O)O)C(=O)N[C@@H](Cc1ccncc1)C(=O)N[C@@H](CC(C)C)C(=O)N[C@@H](CC(C)C)C(=O)N[C@@H](C)C(=O)N[C@@H](C)C(=O)NCC(=O)N1CCC[C@H]1C(=O)N[C@@H](CO)C(=O)N[C@@H](CO)C(=O)NCC(=O)N[C@@H](C)C(=O)N1CCC[C@H]1C(=O)N1CCC[C@H]1C(=O)N1CCC[C@H]1C(=O)N[C@@H](CO)C(N)=O)C(C)C)[C@@H](C)CC
hGIPR cAMP Rel EC50 [1]: 0.0125 nM | hGLP1R cAMP Rel EC50 (human GLP-1 receptor): > 5000 nM | hGcgR cAMP Rel EC50 (human glucagon receptor): 3000 nM
